# Measured values: the supplement of paper PMC9112550, “Optimization of the antimicrobial peptide Bac7 by deep mutational scanning” (BMC Biology, 2022)
# Tested on: Escherichia coli TOP10
# Experiment: shrunken log2 fold change of peptide-encoding DNA abundance (4.5 h post-induction vs induction); higher = less antimicrobial activity (less host growth inhibition)
# Conditions: time post-induction: 4.5 h; library: site-saturation at positions 5, 18, 19, 20
# 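Further: peptides expressed intracellularly from a pBAD plasmid library in pooled LB shake-flask culture, induced with 0.3% L-arabinose, DNA abundance read by NGS, three biological replicates, DESeq2 with apeglm shrinkage.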
row,Sequence,shrunken log2 fold change
1,RRIRKRPPRLPRPRPRPSISPRP,0.146
2,RRIRGRPPRLPRPRPRPETVPRP,0.431
3,RRIRERPPRLPRPRPRPMWPPRP,0.186
4,RRIRLRPPRLPRPRPRPGQKPRP,-0.00989
5,RRIRCRPPRLPRPRPRPWYPPRP,-0.742
6,RRIRYRPPRLPRPRPRPPWYPRP,-0.786
7,RRIRKRPPRLPRPRPRPKGIPRP,0.106
8,RRIRTRPPRLPRPRPRPPHIPRP,-0.471
9,RRIRDRPPRLPRPRPRPPFTPRP,1.76
10,RRIRHRPPRLPRPRPRPPVYPRP,0.118
11,RRIRNRPPRLPRPRPRPPQGPRP,0.192
12,RRIRYRPPRLPRPRPRPFHKPRP,-0.0655
13,RRIRERPPRLPRPRPRPIWNPRP,-0.0842
14,RRIRDRPPRLPRPRPRPAEGPRP,0.015
15,RRIRDRPPRLPRPRPRPETHPRP,0.739
16,RRIRIRPPRLPRPRPRPEPPPRP,0.254
17,RRIRERPPRLPRPRPRPNEEPRP,0.00699
18,RRIRKRPPRLPRPRPRPHWPPRP,0.31
19,RRIRARPPRLPRPRPRPIHMPRP,0.0203
20,RRIRKRPPRLPRPRPRPNKRPRP,-0.0102
21,RRIRGRPPRLPRPRPRPQGSPRP,-0.0808
22,RRIRNRPPRLPRPRPRPYQTPRP,-0.00141
23,RRIRFRPPRLPRPRPRPVSGPRP,-0.0636
24,RRIRLRPPRLPRPRPRPQGKPRP,0.0467
25,RRIRGRPPRLPRPRPRPIMGPRP,0.0308

row,Sequence,shrunken log2 fold change
1,RRIRRRPPRLPRPRPRPVTTPRP,0.48
2,RRIRNRPPRLPRPRPRPCIYPRP,-0.599
3,RRIRQRPPRLPRPRPRPATCPRP,-0.0483
4,RRIRKRPPRLPRPRPRPKAYPRP,0.0431
5,RRIRCRPPRLPRPRPRPWVSPRP,-0.463
6,RRIRSRPPRLPRPRPRPGVGPRP,0.617
7,RRIRRRPPRLPRPRPRPEQAPRP,-0.0266
8,RRIRPRPPRLPRPRPRPYVRPRP,-0.61
9,RRIRNRPPRLPRPRPRPDHYPRP,-0.202
10,RRIRYRPPRLPRPRPRPGTMPRP,-0.139
11,RRIRPRPPRLPRPRPRPQWVPRP,0.0693
12,RRIRPRPPRLPRPRPRPRLNPRP,0.307
13,RRIRERPPRLPRPRPRPPVDPRP,0.125
14,RRIRMRPPRLPRPRPRPKRLPRP,0.0697
15,RRIRGRPPRLPRPRPRPWRLPRP,-0.0196
16,RRIRKRPPRLPRPRPRPTSCPRP,0.174
17,RRIRCRPPRLPRPRPRPHINPRP,-0.501
18,RRIRLRPPRLPRPRPRPHTEPRP,-0.167
19,RRIRHRPPRLPRPRPRPGPQPRP,0.0368
20,RRIRYRPPRLPRPRPRPKPYPRP,-0.698
21,RRIRYRPPRLPRPRPRPCTHPRP,-1.23
22,RRIRNRPPRLPRPRPRPAYWPRP,0.0638
23,RRIRNRPPRLPRPRPRPCTYPRP,0.05
24,RRIRHRPPRLPRPRPRPKSPPRP,-0.0893
25,RRIRCRPPRLPRPRPRPAFIPRP,0.0295

row,Sequence,shrunken log2 fold change
1,RRIRLRPPRLPRPRPRPLLFPRP,-0.242
2,RRIRPRPPRLPRPRPRPFKCPRP,-0.214
3,RRIRARPPRLPRPRPRPFEEPRP,0.424
4,RRIRMRPPRLPRPRPRPSYWPRP,0.0657
5,RRIRKRPPRLPRPRPRPAPYPRP,0.212
6,RRIRSRPPRLPRPRPRPTFFPRP,-0.0698
7,RRIRFRPPRLPRPRPRPFTGPRP,-0.246
8,RRIRCRPPRLPRPRPRPNMAPRP,-0.614
9,RRIRKRPPRLPRPRPRPDCYPRP,0.012
10,RRIRERPPRLPRPRPRPMFPPRP,-0.475
11,RRIRRRPPRLPRPRPRPHPHPRP,0.147
12,RRIRSRPPRLPRPRPRPALCPRP,0.292
13,RRIRCRPPRLPRPRPRPICCPRP,-0.166
14,RRIRMRPPRLPRPRPRPIFYPRP,-0.106
15,RRIRPRPPRLPRPRPRPATPPRP,0.216
16,RRIRARPPRLPRPRPRPFPSPRP,0.131
17,RRIRQRPPRLPRPRPRPLCNPRP,-0.178
18,RRIRFRPPRLPRPRPRPPQDPRP,0.303
19,RRIRGRPPRLPRPRPRPYMCPRP,0.0864
20,RRIRGRPPRLPRPRPRPMKSPRP,0.206
21,RRIRPRPPRLPRPRPRPWDSPRP,-0.456
22,RRIRPRPPRLPRPRPRPWKYPRP,-0.269
23,RRIRQRPPRLPRPRPRPSAFPRP,-0.247
24,RRIRIRPPRLPRPRPRPKMFPRP,0.0072
25,RRIRCRPPRLPRPRPRPCLIPRP,-0.404

row,Sequence,shrunken log2 fold change
1,RRIRMRPPRLPRPRPRPNMIPRP,-0.489
2,RRIRWRPPRLPRPRPRPDYEPRP,-0.0912
3,RRIRKRPPRLPRPRPRPYNHPRP,-0.0988
4,RRIRTRPPRLPRPRPRPQKLPRP,-0.364
5,RRIRNRPPRLPRPRPRPCWTPRP,-0.0133
6,RRIRFRPPRLPRPRPRPDTKPRP,-0.123
7,RRIRARPPRLPRPRPRPWLEPRP,-0.0344
8,RRIRYRPPRLPRPRPRPYMVPRP,-0.386
9,RRIRHRPPRLPRPRPRPGGGPRP,0.684
10,RRIRPRPPRLPRPRPRPCYWPRP,-0.294
11,RRIRYRPPRLPRPRPRPVEAPRP,-0.35
12,RRIRFRPPRLPRPRPRPHRPPRP,-0.157
13,RRIRSRPPRLPRPRPRPDGCPRP,0.0344
14,RRIRSRPPRLPRPRPRPPPAPRP,1.04
15,RRIRIRPPRLPRPRPRPAMYPRP,-0.733
16,RRIRFRPPRLPRPRPRPMTGPRP,-0.0757
17,RRIRIRPPRLPRPRPRPGCDPRP,0.0474
18,RRIRFRPPRLPRPRPRPGLQPRP,-0.18
19,RRIRLRPPRLPRPRPRPDDYPRP,-0.247
20,RRIRDRPPRLPRPRPRPMEFPRP,-0.0018
21,RRIRWRPPRLPRPRPRPNDEPRP,0.0507
22,RRIRFRPPRLPRPRPRPQHMPRP,-0.615
23,RRIRERPPRLPRPRPRPEVHPRP,0.116
24,RRIRSRPPRLPRPRPRPDTKPRP,-0.248
25,RRIRERPPRLPRPRPRPHHCPRP,-0.0231

row,Sequence,shrunken log2 fold change
1,RRIRHRPPRLPRPRPRPEYHPRP,-0.317
2,RRIRWRPPRLPRPRPRPKRHPRP,0.467
3,RRIRYRPPRLPRPRPRPKQRPRP,-0.106
4,RRIRCRPPRLPRPRPRPKLQPRP,0.155
5,RRIRGRPPRLPRPRPRPFFLPRP,0.301
6,RRIRIRPPRLPRPRPRPPDHPRP,-0.134
7,RRIRSRPPRLPRPRPRPPPPPRP,1.03
8,RRIRCRPPRLPRPRPRPLIEPRP,-0.0593
9,RRIRTRPPRLPRPRPRPESRPRP,-0.0705
10,RRIRARPPRLPRPRPRPSTTPRP,0.363
11,RRIRYRPPRLPRPRPRPWIFPRP,-0.505
12,RRIRRRPPRLPRPRPRPFLQPRP,0.117
13,RRIRCRPPRLPRPRPRPLKQPRP,-0.151
14,RRIRCRPPRLPRPRPRPESAPRP,0.703
15,RRIRQRPPRLPRPRPRPHCFPRP,-0.111
16,RRIRNRPPRLPRPRPRPFWEPRP,-0.372
17,RRIRQRPPRLPRPRPRPKFEPRP,-0.0683
18,RRIRTRPPRLPRPRPRPDKYPRP,-0.147
19,RRIRRRPPRLPRPRPRPLCDPRP,0.422
20,RRIRMRPPRLPRPRPRPDVMPRP,0.147
21,RRIRGRPPRLPRPRPRPHFKPRP,0.178
22,RRIRRRPPRLPRPRPRPTLGPRP,0.138
23,RRIRGRPPRLPRPRPRPDQDPRP,1.06
24,RRIRWRPPRLPRPRPRPWARPRP,0.135
25,RRIRRRPPRLPRPRPRPPDMPRP,0.432
